Experimental data taken from patent US4734420A, “Anti-hypertensive agents” (priority 1980, dated 1988).

Substrate: CC(C)C[C@H](NC(=O)[C@H](Cc1cnc[nH]1)NC(=O)CNC(=O)c1ccccc1)C(=O)O
Assay: purified protein, by the assay type
Format: biochemical
Conditions: other: substrate hippuryl-His-Leu, human urinary ACE, pH 8.0
From the text: The role of ACE in the pathogenesis of hypertension has prompted a search for inhibitors of the enzyme that could act as antihypertensive drugs. See for example U.S. Pat. Nos. 3,891,616, 3,947,575, 4,052,511 and 4,053,651. […]. No. 4,046,889 to Ondetti et al., issued Sept. 6, 1977, and in scientific articles by Cushman, D. W. et al., Biochemistry 16, 5484 (1977), and by Ondetti, M. et al., Science 196, 441 (1977). […]. These factors include the source of enzyme, its purity, the substrate used and its concentration, and the composition of the assay buffer. All I50 data reported herein have been performed with the same assay system and same enzyme (human urinary ACE) and with an approximately 1/2 Km level of substrate and are therefore internally consistent. Discrepancies with data obtained by other workers may be observed. Indeed such discrepancies do exist in the literature, for unknown reasons. See, for example, the I50 values for BPP9a reported by Cushman, D. W., et al., Experientia 29, 1032 (1973) and by Dorer, F. E., et al., Biochim. Biophys. Acta 429, 220 (1976).
The inhibitory potency of N^α -[3-(L-α-glutamylthio)-2-D-methyl-propanoyl]-L-proline in vitro was measured in the following assay. […] The enzyme was assayed in 0.05M Hepes buffer, pH 8.0 containing 0.1M NaCl and 0.75M Na2 SO4. […]

B1: Human urinary ACE (Homo sapiens) (protein)
chain: LDPGLQPGNFSADEAGAQLFAQSYNSSAEQVLFQSVAASWAHDTNITAENARRQEEAALLSQEFAEAWGQKAKELYEPIWQNFTDPQLRRIIGAVRTLGSANLPLAKRQQYNALLSNMSRIYSTAKVCLPNKTATCWSLDPDLTNILASSRSYAMLLFAWEGWHNAAGIPLKPLYEDFTALSNEAYKQDGFTDTGAYWRSWYNSPTFEDDLEHLYQQLEPLYLNLHAFVRRALHRRYGDRYINLRGPIPAHLLGDMWAQSWENIYDMVVPFPDKPNLDVTSTMLQQGWNATHMFRVAEEFFTSLELSPMPPEFWEGSMLEKPADGREVVCHASAWDFYNRKDFRIKQCTRVTMDQLSTVHHEMGHIQYYLQYKDLPVSLRRGANPGFHEAIGDVLALSVSTPEHLHKIGLLDRVTNDTESDINYLLKMALEKIAFLPFGYLVDQWRWGVFSGRTPPSRYNFDWWYLRTKYQGICPPVTRNETHFDAGAKFHVPNVTPYIRYFVSFVLQFQFHEALCKEAGYEGPLHQCDIYRSTKAGAKLRKVLQAGSSRPWQEVLKDMVGLDALDAQPLLKYFQPVTQWLQEQNQQNGEVLGWPEYQWHPPLPDNYPEGIDLVTDEAEASKFVEEYDRTSQVVWNEYAEANWNYNTNITTETSKILLQKNMQIANHTLKYGTQARKFDVNQLQNTTIKRIIKKVQDLERAALPAQELEEYNKILLDMETTYSVATVCHPNGSCLQLEPDLTNVMATSRKYEDLLWAWEGWRDKAGRAILQFYPKYVELINQAARLNGYVDAGDSWRSMYETPSLEQDLERLFQELQPLYLNLHAYVRRALHRHYGAQHINLEGPIPAHLLGNMWAQTWSNIYDLVVPFPSAPSMDTTEAMLKQGWTPRRMFKEADDFFTSLGLLPVPPEFWNKSMLEKPTDGREVVCHASAWDFYNGKDFRIKQCTTVNLEDLVVAHHEMGHIQYFMQYKDLPVALREGANPGFHEAIGDVLALSVSTPKHLHSLNLLSSEGGSDEHDINFLMKMALDKIAFIPFSYLVDQWRWRVFDGSITKENYNQEWWSLRLKYQGLCPPVPRTQGDFDPGAKFHIPSSVPYIRYFVSFIIQFQFHEALCQAAGHTGPLHKCDIYQSKEAGQRLATAMKLGFSRPWPEAMQLITGQPNMSASAMLSYFKPLLDWLRTENELHGEKLGWPQYNWTPNSAR
notes: from tissue; host or cells: human urine
Km: 200 µM
